In publication PMC7774594, “Functional Characterization of Primordial Protein Repair Enzyme M38 Metallo-Peptidase From Fervidobacterium islandicum AW-1” (Frontiers in Molecular Biosciences, 2020):

Experiments:
[1] = target: M38 β-aspartyl peptidase from Fervidobacterium islandicum AW-1 (FiBAP) (Fervidobacterium islandicum AW-1); assay: SEC; Superdex 200 10/300 GL, 25 mM Tris-HCl pH 7.5, 150 mM NaCl; calibrated with blue dextran, thyroglobulin, ferritin, aldolase, conalbumin, ovalbumin; apparent Mr 318,000 against 42,000 by SDS-PAGE; octamer
[2] = target: M38 β-aspartyl peptidase from Fervidobacterium islandicum AW-1 (FiBAP) (Fervidobacterium islandicum AW-1); assay: crystal structure; hanging drop vapor diffusion at 20°C; ligand-free (I422, one subunit in the asymmetric unit, 2.6 Å) and with Cbz-β-Asp-Leu (P22(1)2, four subunits, 2.7 Å); octamer (tetramer of dimers) from symmetry-related molecule analysis
[3] = target: T1, FiBAP (M38 β-aspartyl peptidase from Fervidobacterium islandicum AW-1) (Fervidobacterium islandicum, UniProt A0AAI8CML9); assay: enzyme activity inhibition (data not shown); assay type: biochemical; details: substrate analog inhibitor, conditions not given
T1 construct: gene iadA; full length (M1-E386), 6xHis tag (N-terminal per methods with pET-28a, C-terminal per results), E. coli BL21(DE3); 42 kDa monomer, 318 kDa octamer (tetramer of dimers); binuclear Zn
T1 sequence (A0AAI8CML9 1-387): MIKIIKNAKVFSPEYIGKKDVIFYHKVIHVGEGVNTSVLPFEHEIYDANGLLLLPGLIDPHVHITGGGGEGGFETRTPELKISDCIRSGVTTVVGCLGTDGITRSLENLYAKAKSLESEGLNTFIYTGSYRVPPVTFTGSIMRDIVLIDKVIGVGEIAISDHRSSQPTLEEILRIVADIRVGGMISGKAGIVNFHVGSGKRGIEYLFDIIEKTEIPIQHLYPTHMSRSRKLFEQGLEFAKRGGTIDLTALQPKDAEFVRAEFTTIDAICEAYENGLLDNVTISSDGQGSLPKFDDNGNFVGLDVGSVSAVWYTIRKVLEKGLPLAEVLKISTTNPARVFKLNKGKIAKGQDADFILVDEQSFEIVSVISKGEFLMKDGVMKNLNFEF

[4] = target: T1, FiBAP (M38 β-aspartyl peptidase from Fervidobacterium islandicum AW-1); assay: X-ray crystal structure, […] Å; assay type: binding; details: co-crystallised with Cbz-β-DL, but only the β-DL moiety has density; wild type; binuclear Zn active site; pH about 5
[5] = substrate: CC(C)C[C@H](NC(=O)C[C@H](N)C(=O)O)C(=O)O; assay: ninhydrin assay of free amino acids, Michaelis-Menten fit; assay type: biochemical, Fervidobacterium islandicum; details: 50 mM HEPES pH 8.0, 1 mM CoCl2, 80°C, 10 min, 1–32 mM substrate
Description: ninhydrin assay of free amino acids, Michaelis-Menten fit on FiBAP ([…] β-aspartyl peptidase from Fervidobacterium islandicum AW-1) | steady-state kinetics analysis of FiBAP with β-DL as substrate, yielding Km and Vmax values

M38 β-aspartyl peptidase from Fervidobacterium islandicum AW-1 (FiBAP) (enzyme)
stoichiometry N [1]: 8
stoichiometry N [2]: 8

CC(C)C[C@H](NC(=O)C[C@H](NC(=O)OCc1ccccc1)C(=O)O)C(=O)O [N-carbobenzoxy-β-Asp-Leu]
enzyme activity inhibition (data not shown) [3]: our substrate analog (Cbz-β-DL) containing Cbz inhibited enzyme activity in our enzyme assays

CC(C)C[C@H](NC(=O)C[C@H](N)C(=O)O)C(=O)O [β-Asp-Leu]
X-ray crystal structure, 2.7 Å [4]: included distinct electron density only for the β-DL moiety lacking carbamazepine (Cbz)

B1: FiBAP (M38 β-aspartyl peptidase from Fervidobacterium islandicum AW-1) (Fervidobacterium islandicum) (protein)
chain: MIKIIKNAKVFSPEYIGKKDVIFYHKVIHVGEGVNTSVLPFEHEIYDANGLLLLPGLIDPHVHITGGGGEGGFETRTPELKISDCIRSGVTTVVGCLGTDGITRSLENLYAKAKSLESEGLNTFIYTGSYRVPPVTFTGSIMRDIVLIDKVIGVGEIAISDHRSSQPTLEEILRIVADIRVGGMISGKAGIVNFHVGSGKRGIEYLFDIIEKTEIPIQHLYPTHMSRSRKLFEQGLEFAKRGGTIDLTALQPKDAEFVRAEFTTIDAICEAYENGLLDNVTISSDGQGSLPKFDDNGNFVGLDVGSVSAVWYTIRKVLEKGLPLAEVLKISTTNPARVFKLNKGKIAKGQDADFILVDEQSFEIVSVISKGEFLMKDGVMKNLNFEF
notes: full length (M1-E386), 6xHis tag (N-terminal per methods with pET-28a, C-terminal per results), E. coli BL21(DE3); 42 kDa monomer, 318 kDa octamer (tetramer of dimers); binuclear Zn
Km [5]: 5.23 ± 1.59 mg/mL
